The test system of data set [1] is influenza A virus hemagglutinin (on whole virus particles) (Influenza A virus (strain not in the material)). Description: BLI. The following applies: BLI: 10 mM Tris-HCl pH 7.5, 140 mM NaCl, 10 mM KCl ([…], temperature not stated.
The test system is the same in data set [2]. Description: BLI. Conditions: BLI: 10 mM Tris-HCl pH 7.5, 140 mM NaCl, 10 mM KCl ([…], temperature not stated; cited from earlier work.

By Kd is commonly meant the concentration at which binding is half-saturated. As for “TTGGGGTTATTTTGGGAGGGCGGGGGTT [RHA0385 (biotinylated)]”, the figures for the Kd in data set [1] and in data set [2] were 1.1 nM and 0.05 nM, respectively.

The values above are taken from article PMC9279936.
